# Reference: publication PMC3438448, “Lis1 Acts as a “Clutch” between the ATPase and Microtubule-Binding Domains of the Dynein Motor” (Cell, 2012)
# B1: Lis1 (S. cerevisiae Pac1) (natural protein, UniProt P39946 1-494, looked up)
# chain: MTNWQQQLPLTDTQKNELDKSVLRYLNWNYKQTVRHEHAQDYESVRHAIVTLSGFLLQESVDRQEFISNNDTSNESMVDIDELLLPKKWNSIVRLQKKIIELEQNTETLVSQIKDLNTQVSELAQFKPTTSNGTSAHNVLKWIPRNLPSCLINVESSVTSVKLHPNLPIVFVATDHGKLYAFDLFNYTIPLASLQSHTKAITSMDVLFTNYTNSSKKNYLVIVTASKDLQIHVFKWVSEECKFQQIRSLLGHEHIVSAVKIWQKNNDVHIASCSRDQTVKIWDFHNGWSLKTFQPHSQWVRSIDVLGDYIISGSHDTTLRLTHWPSGNGLSVGTGHEFPIEKVKFIHFIEDSPEIRFRTPSTDRYKNWGMQYCVSASRDRTIKIWEIPLPTLMAHRAPIPNPTDSNFRCVLTLKGHLSWVRDISIRGQYLFSCADDKSVRCWDLNTGQCLHVWEKLHTGFVNCLDLDVDFDSNVTPRQMMVTGGLDCKSNVFMR
# notes: Lis1 ortholog Pac1 (PAC1), S. cerevisiae; also called dimeric Lis1; intact Lis1; source: S. cerevisiae, expressed from the genomic locus, purified (Ni-NTA, IgG sepharose, TEV cleavage)
# Molecular target: the molecule itself
# Experiment: cross-linking; 0.5 μM protein ± 0.05% glutaraldehyde, 5 min, ambient temperature; 30 mM HEPES pH 7.2, 50 mM potassium acetate; SDS-PAGE; control pretreated with 4% LDS
protein,measurement,value
B1,stoichiometry N,2
